According to patent US20240010720A1 (IOMX THERAPEUTICS, published 2024):

T1: His-tagged extracellular domain (ECD) of human IGSF11 (VSIG3) (human, UniProt Q5DX21 23-241)
T1 construct: partly bought (SinoBiological 13094-H08H); also called IGSF11-HIS; HIS-IGSF11; not shown: HIS6 tag
T1 sequence: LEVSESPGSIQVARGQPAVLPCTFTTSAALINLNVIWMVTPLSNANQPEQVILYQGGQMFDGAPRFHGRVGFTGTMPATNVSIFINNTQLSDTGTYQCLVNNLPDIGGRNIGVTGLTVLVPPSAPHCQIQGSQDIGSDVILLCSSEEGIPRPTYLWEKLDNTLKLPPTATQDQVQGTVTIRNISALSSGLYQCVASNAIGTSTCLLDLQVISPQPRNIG

T2: IGSF11 ECD fused to murine-Fc (human; mouse, UniProt Q5DX21 23-241)
T2 construct: also called Fc-fusion IGSF11 ECD; full-length ECD of IGSF11; not shown: murine Fc
T2 sequence: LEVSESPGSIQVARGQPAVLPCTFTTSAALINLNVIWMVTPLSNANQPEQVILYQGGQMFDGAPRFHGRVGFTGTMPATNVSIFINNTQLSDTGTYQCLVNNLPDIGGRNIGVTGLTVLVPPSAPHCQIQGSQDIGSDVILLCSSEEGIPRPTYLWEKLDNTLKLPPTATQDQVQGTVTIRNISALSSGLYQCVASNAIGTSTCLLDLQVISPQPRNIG

T3: human IGSF11 (VSIG3) on cells (human, UniProt Q5DX21 23-431)
T3 sequence: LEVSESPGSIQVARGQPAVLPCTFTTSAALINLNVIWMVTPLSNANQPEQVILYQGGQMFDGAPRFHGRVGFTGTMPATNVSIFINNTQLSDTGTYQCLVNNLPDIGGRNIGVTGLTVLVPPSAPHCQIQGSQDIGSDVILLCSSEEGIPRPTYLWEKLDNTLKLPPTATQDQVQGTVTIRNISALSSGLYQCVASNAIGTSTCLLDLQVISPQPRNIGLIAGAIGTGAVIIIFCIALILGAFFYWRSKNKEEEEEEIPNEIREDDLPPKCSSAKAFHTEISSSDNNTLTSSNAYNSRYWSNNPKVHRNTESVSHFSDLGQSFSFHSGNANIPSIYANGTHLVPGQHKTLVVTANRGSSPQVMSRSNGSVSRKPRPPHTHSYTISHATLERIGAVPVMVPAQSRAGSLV

T4: murine IGSF11 on cells (mouse, UniProt P0C673 23-428)
T4 construct: UniProt P0C673; also called MC38-IGSF11 (murine); CT26-IGSF11 (murine)
T4 sequence: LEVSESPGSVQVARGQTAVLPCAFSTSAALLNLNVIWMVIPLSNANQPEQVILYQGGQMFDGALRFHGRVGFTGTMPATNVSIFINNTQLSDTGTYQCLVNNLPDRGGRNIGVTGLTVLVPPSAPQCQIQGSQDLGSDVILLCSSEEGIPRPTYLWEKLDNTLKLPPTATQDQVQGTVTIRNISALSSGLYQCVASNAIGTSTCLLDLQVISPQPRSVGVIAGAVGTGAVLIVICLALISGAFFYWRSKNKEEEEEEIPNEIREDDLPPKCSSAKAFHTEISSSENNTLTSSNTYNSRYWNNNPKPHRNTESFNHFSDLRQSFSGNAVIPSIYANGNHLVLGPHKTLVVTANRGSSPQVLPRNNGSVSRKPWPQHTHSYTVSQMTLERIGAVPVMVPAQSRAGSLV

T5: recombinant human IGSF11 (VSIG3) extracellular domain (ECD) (human, UniProt Q5DX21 23-241, biotinylated where captured on streptavidin)
T5 construct: also called biotinylated recombinant ECD-IGSF11; IGSF11 (ECD domain)
T5 sequence: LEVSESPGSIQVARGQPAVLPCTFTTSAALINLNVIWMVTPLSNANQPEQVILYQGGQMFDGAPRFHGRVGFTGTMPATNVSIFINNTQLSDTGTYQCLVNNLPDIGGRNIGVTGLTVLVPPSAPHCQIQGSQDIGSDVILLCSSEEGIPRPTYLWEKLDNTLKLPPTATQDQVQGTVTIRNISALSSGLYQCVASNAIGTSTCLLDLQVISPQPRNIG

T6: recombinant murine IGSF11 extracellular domain (ECD) (mouse, UniProt P0C673 23-240, biotinylated)
T6 construct: also called Mouse IGSF11; murine ECD-IGSF11
T6 sequence: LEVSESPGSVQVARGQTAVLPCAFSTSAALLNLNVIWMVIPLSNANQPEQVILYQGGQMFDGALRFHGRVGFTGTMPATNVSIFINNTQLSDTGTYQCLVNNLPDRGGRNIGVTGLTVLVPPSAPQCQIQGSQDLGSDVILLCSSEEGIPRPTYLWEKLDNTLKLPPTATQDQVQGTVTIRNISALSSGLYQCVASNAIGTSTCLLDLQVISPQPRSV

T7: recombinant cynomolgus monkey IGSF11 extracellular domain (ECD) (cynomolgus monkey, UniProt Q5DX21 23-241 (human entry), biotinylated)
T7 chain: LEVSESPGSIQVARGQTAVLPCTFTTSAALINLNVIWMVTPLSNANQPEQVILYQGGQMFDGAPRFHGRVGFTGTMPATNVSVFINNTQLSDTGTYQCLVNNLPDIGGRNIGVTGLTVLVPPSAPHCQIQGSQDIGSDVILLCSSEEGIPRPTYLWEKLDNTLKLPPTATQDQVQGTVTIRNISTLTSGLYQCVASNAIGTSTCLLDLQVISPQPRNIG


What was measured:
[1] = molecular target: T1, His-tagged extracellular domain (ECD) …; assay: blocking ELISA: antibody pre-incubated with His-tagged IGSF11 ECD, complexes added to immobilised VSIR-Fc; y axis % remaining IGSF11 binding to VSIR, x axis nM IgG per legend
[2] = molecular target: T2, IGSF11 ECD fused to murine-Fc; assay: ELISA, IgG
[3] = molecular target: T3, human IGSF11 (VSIG3) on cells; assay: FACS, MDA-MB-231-IGSF11 cells, IgG
From the text: (§1) Unbound antibodies were removed by washing the cells three time with FACS buffer. Bound antibodies were detected with a mouse anti-human IgG antibody conjugated with AlexaFluor647.

[4] = molecular target: T4, murine IGSF11 on cells; assay: FACS, MC38-IGSF11 cells, IgG
From the text: as §1

[5] = molecular target: T5, recombinant human IGSF11 (VSIG3) …; assay: BLI, apparent affinity, IgG captured, IGSF11 ECD 100 nM
From the text: Briefly, various APBs were loaded on an optical biosensor via a commercially available Capture System (AHC sensors, ForteBio).

[6] = molecular target: T4, murine IGSF11 on cells; assay: FACS, CT26-IGSF11 cells, IgG
From the text: as §1

[7] = molecular target: T6, recombinant murine IGSF11 extracellular …; assay: ELISA, Fab
Method: (§2) In order to identify IGSF11-specific binding ABPs, monoclonal Fabs expressed from E. coli were generated from the enriched set of anti-IGFS11 antibody-expressing phage. After bacterial lysis, the Fabs were tested for their binding properties and cross-reactivity profile on recombinant ECD-IGSF11 (human, mouse and cynomolgus monkey) by standard ELISA. Briefly, biotinylated recombinant ECD-IGSF11 from human, mouse, or cynomolgus monkey were immobilized at 2 ug/mL on a streptavidin-coated 384-well Maxisorp plate. The surface was blocked with 2% (w/v) skim milk powder in PBST. After three wash cycles with PBST, a bacterial lysate of each of the anti-IGSF11 Fabs in 2% (w/v) skim milk powder was applied to the immobilized IGSF11 and incubated for 1 h. After removing all unbound Fab by 3 wash cycles with PBST, bound Fab antibodies were detected with a goat anti-human Fab antibody conjugated with horseradish peroxidase. After three wash cycles with PBST the ELISA was developed with TMB substrate.

[8] = molecular target: T7, recombinant cynomolgus monkey IGSF11 …; assay: ELISA, Fab
Method: as §2

[9] = molecular target: T5, recombinant human IGSF11 (VSIG3) …; assay: ELISA, Fab
Method: as §2

[10] = molecular target: T8, Streptavidin (UniProt P22629 37-163, limits assumed); assay: ELISA, Fab
T8 construct: also called negative antigen; irrelevant antigen
T8 sequence (P22629 37-163 limits assumed): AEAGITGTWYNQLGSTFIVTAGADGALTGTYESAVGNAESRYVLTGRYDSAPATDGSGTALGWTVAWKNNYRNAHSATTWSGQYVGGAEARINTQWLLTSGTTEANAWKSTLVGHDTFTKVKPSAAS
Method: as §2

| Binder | IC50 (read off the curve) [1] [nM] | EC50 [2] [nM] | EC50 [3] [nM] | EC50 [4] [nM] | Kd [5] [nM] | EC50 [6] [nM] | A450 [7] | A450 [8] | A450 [9] | A450 [10] |
| --- | --- | --- | --- | --- | --- | --- | --- | --- | --- | --- |
| B-008 (chain-swapped IgG1) (antibody, V domains shown, human IgG1 format; also called B8) VH: EVQLVESGGGLIQPGGSLRLSCAASGFTVSSNYMSWVRQAPGKGLEWVSVIYSGGSTYYADSVKGRFTISRDNSKNTLYLQMNSLRAEDTAVYYCARGNPYYYGDLQVNFDYWGQGTLVTVSS VL: QAVVTQEPSLTVSPGGTVTPTCGSSTGAVTSGNLPNWFQQKPGQAPRALIYSTSNKHSWTPARISGSLLGGKAALTLSGVQPEDEAEYYCLLYYGGAWVFGGGTKLTVL | ~4 |  |  |  |  |  |  |  |  |  |
| C-007 (IgG1 format) (antibody, V domains shown, wildtype human IgG1 and kappa or lambda constant regions) VH: not shown VL: ASVLTQPPSVSAAPGQKVTISCSGSSSNIGNNYVSWYQQLPGTAPKLLIYDNNKRPSGIPDRFSGSKSGTSATLGITGLQAEDEADYYCQLYEEEHSTWVFGGGTKLTVL |  | < 1 | < 10 | < 20 | < 125 | 20 to 50 |  |  |  |  |
| C-001 (IgG1 format) (antibody, V domains shown, wildtype human IgG1 and kappa or lambda constant regions; also called ABP C-001) VH: not shown VL: ASVLTQPPSVSAAPGQKVTISCSGSSSNIGNNYVSWYQQLPGTAPKLLIYDNNKRPSGIPDRFSGSKSGTSATLGITGLQAEDEADYYCGSWLEERSQYVFGGGTKLTVL |  | < 1 | < 10 | 50 to 100 | < 75 | 20 to 50 |  |  |  |  |
| C-016 (IgG1 format) (antibody, V domains shown, wildtype human IgG1 and kappa or lambda constant regions) VH: not shown VL: ASVLTQPPSVSAAPGQKVTISCSGSSSNIGNNYVSWYQQLPGTAPKLLIYDNNKRPSGIPDRFSGSKSGTSATLGITGLQAEDEADYYCHLYTEAESHWVFGGGTKLTVL |  |  |  | 50 to 100 |  | 20 to 50 |  |  |  |  |
| C-004 (Fab format) (Fab, V domains shown, Fab in E. coli lysate) VH: not shown VL: ASVLTQPPSVSAAPGQKVTISCSGSSSNIGNNYVSWYQQLPGTAPKLLIYDNNKRPSGIPDRFSGSKSGTSATLGITGLQAEDEADYYCLTWTGAGRIFVFGGGTKLTVL |  |  |  |  |  |  | < 1 | < 1 | < 1 | < 0.1 |
| C-013 (Fab format) (Fab, V domains shown, Fab in E. coli lysate) VH: not shown VL: SYELTQPPSVSVSPGQTASITCSGDKLGDKYASWYQQKPGQSPVLVIYQDSKRPSGIPERFSGSNSGNTATLTISGTQAEDEADYYCASYLHTPKQFVFGGGTKLTVL |  |  |  |  |  |  |  |  | < 1 | < 0.1 |
| C-005 (IgG1 format) (antibody, V domains shown, wildtype human IgG1 and kappa or lambda constant regions) VH: not shown VL: SYELTQPPSVSVSPGQTASITCSGDKLGDKYASWYQQKPGQSPVLVIYQDSKRPSGIPERFSGSNSGNTATLTISGTQAEDEADYYCHSYTGKPSQVVFGGGTKLTVL |  | < 1 | < 10 | < 20 | < 15 | < 20 |  |  |  |  |
| C-017 (IgG1 format) (antibody, V domains shown, wildtype human IgG1 and kappa or lambda constant regions) VH: not shown VL: DIQMTQSPSSLSASVGDRVTITCRASQSISSYLNWYQQKPGKAPKLLIYAASSLQSGVPSRFSGSGSGTDFTLTISSLQPEDFATYYCQQHRYIPPWTFGQGTKVEIK |  | 1 to 20 | 15 to 25 | 50 to 100 |  | 20 to 50 |  |  |  |  |
| C-018 (Fab format) (Fab, V domains shown, Fab in E. coli lysate) VH: not shown VL: SYELTQPPSVSVSPGQTASITCSGDKLGDKYASWYQQKPGQSPVLVIYQDSKRPSGIPERFSGSNSGNTATLTISGTQAEDEADYYCQAWSTSTHSWVFGGGTKLTVL |  |  |  |  |  |  | < 1 | < 1 | < 1 | < 0.1 |
| C-019 (Fab format) (Fab, V domains shown, Fab in E. coli lysate) VH: not shown VL: DIQMTQSPSSLSASVGDRVTITCRASQSISSYLNWYQQKPGKAPKLLIYAASSLQSGVPSRFSGSGSGTDFTLTISSLQPEDFATYYCQQWQHEPPYTFGQGTKVEIK |  |  |  |  |  |  | < 1 | < 1 | < 1 | < 0.1 |
| C-027 (Fab format) (Fab, V domains shown, Fab in E. coli lysate) VH: QVQLVQSGAEVKKPGSSVKVSCKASGGTFSSYAISWVRQAPGQGLEWMGGIIPIFGTANYAQKFQGRVTITADESTSTAYMELSSLRSEDTAVYYCARENIPSYYDSSGRQDAFDIWGQGTMVTVSS VL: SYELTQPPSVSVSPGQTASITCSGDKLGDKYASWYQQKPGQSPVLVIYQDSKRPSGIPERFSGSNSGNTATLTISGTQAEDEADYYCQSYLHKSHGAVFGGGTKLTVL |  |  |  |  |  |  |  | < 1 | < 1 | < 0.1 |
